Test results reported in the nanobody polyreactivity screen of Harvey et al. (2022).

Assay: yeast display, Sf9 membrane polyspecificity reagent, FACS + sequencing; frameworks hold sequencing errors
Procedure, shortened: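 Polyreactivity labels are assigned by the sorting gate from which each nanobody was recovered. The gates were low and high (top ~1%), set on anti-HA fluorescence for expression and streptavidin fluorescence for reagent binding. Before sorting, galactose-induced (36–48 hours) yeast display cells were stained for 1 hour at 4 °C with 10% biotinylated, detergent-solubilized Sf9 membrane reagent.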

Row | Sequence | polyreactivity (PSR sort gate)
1 | QVQLVESGGGLVQAGGSLRISCAASGSTFYFNAMGWYRQAPGKERELVAGISSGGSTYYADSVKWRFTISRDNAKTTVYLQMNSLKPEDTAVYYCAATWLVERPFSYTEYGYWGQGTQVTVSS | low polyreactivity
2 | QVQLVESGGGLVQAGGSLRISCAASGSTFYYYAMGWYRQAPGKERELVAAISTTGGSTYYADSVKGRFTISRDNAKNTVYLQMNSLKPEDTAVYYCNAVTRYSRVRAVSSRDSEYWGQGTQVTVSS | high polyreactivity
3 | QVQLVESGGGLVQAGGSLRISCAASGSTITWYTMGWYRQAPGKERELVATIRKRGGSTYYADSVKGRFTISRDNAKNTVYLQMNSLKPEDTAVYYCNDTRLIYRFNPEEAGSTIPYDYWGQGTQVTVSS | high polyreactivity
4 | QVQLVESGGGLVQAGGSLRISCAASGSTLVGKVMGWYRQAPGKERELVADITLSGGSTYYSDSVKGRFTISRDNAKNTVYLQMNSLKPEDTAVYYCNDVFFNYLLEYDYWGQGTQVTVSS | high polyreactivity
5 | QVQLVESGGGLVQAGGSLRISCAASGYIFTGNAMGWYRKAPGKEREFVAAISWSGGSTYYADSVKGRFTISRDNAKNTVYLQMNSLKPEDTAVYYCNKYRPYGRIYHLAYGRDYWGQGTQVTVSS | high polyreactivity
6 | QVQLVESGGGLVQAGGSLRISCAAYGSIFTRYAMGWYRQAPGKERELVAAINSGGSTKYADSVKGRFTISRDNAKNSVYLQMISLKPEDTAVYYCNAGYWWYGYDYWGQGSQVTVSS | high polyreactivity
7 | QVQLVESGGGLVQAGGSLRISCAPSGRIFSYNAMGWYRPAPGKERELVAAINYSDDSTYYADSVKGRFTISRDNAKNTVYLQMNSLKPEDTAVYYCNADASSIVPSYDRPFDYWGQATQVTVSS | low polyreactivity
8 | QVQLVESGGGLVQAGGSLRISCAPSGSTFIPNDMGWYRQAPGKERELVAAITVSGDDTYYADSVKGRFTISRDNAKNNVYVQMNILKPEVTAVYYCAAEWGLYVGQYEYWGQGTQVTVSS | low polyreactivity
9 | QVQLVESGGGLVQAGGSLRISCASSGRIFAFYVMGWYRQAPGKERELVAAISIRGTRTYYADSVKGRFTISRDNAKNTVYLQMNSLKPVDTAVYYCNAVTFPHYYDYWGQGPQVTVSS | high polyreactivity
10 | QVQLVESGGGLVQAGGSLRISCASSGRIFTFYAMGWYRPAPGKERELVAAISSGGSTYYADSVKGRFTISRDNAKNTFYLQMNSLKPEDTAVYYCAAEPVWYADYDYWGQGTQVTVSS | low polyreactivity
11 | QVQLVESGGGLVQAGGSLRISCDASGRTFYVYDRGWYRQAPGKERELVAVISSSGSTNYADSVKGRFTISRDNAKNTVYLQMNSLKPEDTAVYYCNRRRWYFFSLDYWGQGTQVTVSS | high polyreactivity
12 | QVQLVESGGGLVQAGGSLRISCDASGSIFELNAMGWYRQAPGKERELVAAISSGSTYYADSVKGRFTITRDNAKNTVYLQMNSLKPVDTAVYYCAKRWRRRFVDVWSLYDYWGQCTQVTVSS | low polyreactivity
13 | QVQLVESGGGLVQAGGSLRISSAASGRTFVNYTMGWYRQAPGKERELVAAITSSGGSTYYADSVKGRFTISRDNAKNTVYLQMNSLKPEDTAVYYCASAIFDLSFWLYYWGQGTQVTVSS | low polyreactivity
14 | QVQLVESGGGLVQAGGSLRISSAASGSIFLVNALGWYRHAPGKERELVAGISDGGSTYYADSVKGRFTISRDNAKNSVYLLLICLKPEDTAVYFCAAESEQWFSYVLSYDWESDSWGQGSQVTVSS | low polyreactivity
15 | QVQLVESGGGLVQAGGSLRISSPASGSIFTLYDMGWYRQAPGKERELVSAITEDGASTYYADSVKGRFTISRDIAKNTVYLQMNSLKPEDTAYYYCAAHPTYWPVWYVLYDYWGQGTQVTLSS | low polyreactivity
16 | QVQLVESGGGLVQAGGSLRITCAASGRIFGLYAMGWNRQAPGKEREFVAASSWSGTRTNYADSVKGRFTISRDNAKNTVDLQMNSLKPEDTAVYYCAAAYVSYTGYYGQEYDYWGQGTQVTVSS | high polyreactivity
17 | QVQLVESGGGLVQAGGSLRKSCAASGRTFGYNTMGWYRQAPGKERELVAAITWSGGRTYYADSVKGRFTISRDNAKNTVYLQMNSLKPEDTAVYYCIAVIGREFDYWGQGTQVTVSS | high polyreactivity
18 | QVQLVESGGGLVQAGGSLRLCCAASGLTFHRYAMGSYRQAPGKERELDAAINYSGGRTYYADSVKGRFTISRDNAKNTVYLQMNSLKPEDTAVYYCAAPRASGYYWGQGTQVTVSS | high polyreactivity
19 | QVQLVESGGGLVQAGGSLRLCCAASGRIFRYNAMGWYRQAPGKERELVAAITRSGGSTYYADSVKGRFTISRDNAKNTVYLQMNSLKPEDTAVYYCAKVQNGQWSTSRVPGDYQYNYWGQGTQVTVTS | high polyreactivity
20 | QVQLVESGGGLVQAGGSLRLCCAASGSTQAIYAMGWYRQAPGNERELVAAISGGGSTYADSVKGRFTISRDNAKNTVYLQMNSLKPEDTAVYYCNADGWGDSFWSNFRFDYWGQGTQVSVSS | low polyreactivity

Row | Sequence | polyreactivity (PSR sort gate)
21 | QVQLVESGGGLVQAGGSLRLCCAPSGSIFYGYDMGWYRQAPGKERELVATISWSSGSSTYYADSVKGRFTISRDNAKNTVYLQMNSLKPEDTAVYYCAVDFAIGYRYLGRVDYWGQGTQVTVSS | low polyreactivity
22 | QVQLVESGGGLVQAGGSLRLFCAASGSTFISYAMGWYRQAPGKERELVAAISSSGGSTYYAYSVKGRFTISRDNAKNNVYLQMNSLKPEDTAVYYCAAEAVYYRSWRYYYCGQGTQVTVSS | high polyreactivity
23 | QVQLVESGGGLVQAGGSLRLGCAASGITFNLYAMGWYRQAPGKERELVAAISRSATSTYYADSVKRRFTISRDNAKNTVYLQMNSLKPEDTAVYYCATRGHYRQTINYWGQGTQVTVSS | high polyreactivity
24 | QVQLVESGGGLVQAGGSLRLICAASAITFYDYTMGWYRQAPGKERELVAAISRSGGSTYYADSVKGRFTISRDNAKNTVYLQMNSLKPEETAFYYCADYTHYQPEYDYWGQGTQVTVSS | high polyreactivity
25 | QVQLVESGGGLVQAGGSLRLICAASGFIFGYNARGWYRQAPGKERELVAAINWSGGRTYYADSVKGRFTISRDNAKKTVYLQMNRLKPEDTAVDYCNGDGSRRYNYWGQGTQVTVSS | low polyreactivity
26 | QVQLVESGGGLVQAGGSLRLICAASGFIFPDYGMGWYRQAPGKERELVAAISRNGVSTYYADSLKRRFTISRDNAKNTVYLQMISLIPEDTAVYYCAARYYRIRRVSKSVYYWGQCTQVTVSS | low polyreactivity
27 | QVQLVESGGGLVQAGGSLRLICAASGFIFSRYTMGWYRQAPGKERELVAAISKRGGSTYYADSVKGRFTISRDNAKNTVYLQMNSLKPEDTAVYYCAADRLPSGSLVEYWGQGTQVTVSS | high polyreactivity
28 | QVQLVESGGGLVQAGGSLRLICAASGFIFSSNAMGWYRQAPGKERELVAAITRSGGSTYYADSVKGRFTISRDNAKNTVYLQMNSLKPEDTAVYYCNAYVWRSGYDYWGQGTQVTVSS | high polyreactivity
29 | QVQLVESGGGLVQAGGSLRLICAASGFIFTANVMGWYRQAPGKERELVAAISRSGGSTYYADSVKGRFTISRDNAKNTVYLQMNSLKPEDTAVYYCAKLRRDARYDYWGQGTQVTVSS | high polyreactivity
30 | QVQLVESGGGLVQAGGSLRLICAASGFIFVDNAMGWYRQAPGKERELVAAITSGASTYYADSVKGRFTISRDNAKITVYLQMNSLKPEDTAVYYCAADYLYYYTWYNYWGQGTQVTVSS | low polyreactivity
31 | QVQLVESGGGLVQAGGSLRLICAASGFIFWFYAMGWYRQAPGKERELVASISASGGSTNYADSVKGRFTISRDKAKNTVYLQMNSLKPEDTAVYYCAARKRYQRGYWGQGTQVTVSS | high polyreactivity
32 | QVQLVESGGGLVQAGGSLRLICAASGFILKPNAMGWYRQAPGKERELVAAISWSSGSTYYADSVKGRFTISRDNAKNTVYLQMNSLKPEDTAVYYCAADYFVYPVDWYDYWGQGTQVTVSS | low polyreactivity
33 | QVQLVESGGGLVQAGGSLRLICAASGFNFQRYAMGWYIQAPGKERELVATISNSGGRTYYADSVKGRFTISRDNAKNTVYLQMNSLKPEDTAVYYCAAGKPYSSYWSWGYWSNLEDDYWGQGTQVTVSS | high polyreactivity
34 | QVQLVESGGGLVQAGGSLRLICAASGFTFASNDMGWYRQAPGKERELVAAITKGGGRTYYADSVKGRFTISRDNAKNTVYFQMNSLKPEETAVYYCAGRQLIKYDYWGQGTQVTVSS | low polyreactivity
35 | QVQLVESGGGLVQAGGSLRLICAASGFTFDYNAMGWYRPAPVKERELVAAISGSGGSTFYADSVKGRFTISRDNAKNTVYLQMNSLKPEDTAVYYCNVYQHDDDFDYWGQGTQVTVSS | low polyreactivity
36 | QVQLVESGGGLVQAGGSLRLICAASGFTFLVYAMAWDRQAPGKERELVAAIRWRGGSTYADSLKGRFTISRDNAKNTVYLQMYSLKPEDTAVYYCAAANRYYVSPRVYYWGQGTQVTVSS | high polyreactivity
37 | QVQLVESGGGLVQAGGSLRLICAASGFTFNFYAMGWYRQAPGKEMELVASITSSGARTYYADSVKGRFTISRDNAKNSVYLQMNSQKPEDTAVYYCAARVYRYSASRAYDYWGQGTQVTVSS | high polyreactivity
38 | QVQLVESGGGLVQAGGSLRLICAASGFTFSKYGMVWYRQAPGKERELVAAISGSGGNTYYADSVKGRFTISRDNAKNTVYLLINSLKPEDTAVYYCNATWELLSYYYLFWGYDYWGQGTQVTVSS | low polyreactivity
39 | QVQLVESGGGLVQAGGSLRLICAASGFTLYAYAMGWYRQAPGKERELVAAISDSGGDTYYADSVKGRFTISRDNAKNTVYLQMNSLKPEDTAVYYCAALYNHWWEYDYWGQGTQVTVSS | low polyreactivity
40 | QVQLVESGGGLVQAGGSLRLICAASGFTYRGYAMGWYRQAPGKERELVAAISSSVGSTYYADAVKGRFTISRDNAKNTVYLQKISLKPEDTAVYYCAARKGYVIRYNYWGQGTQVTVSS | high polyreactivity
